{"source": "paper doi:10.1101/2021.05.09.442808", "about": "(bioRxiv, 2021)", "binders": {"B1": {"name": "S2P6 Fab fragment (Fab, V domains shown)", "VH": "EVQLVQSGAEVKKPGASVKVSCKASGYTFTSQYMHWVRQAPGQGLEWIGIINPSGVHTSYAQKFQGRVTLTRDTSTSTLYMELSSLRSEDTAVYYCARGSPKGAFDYWGQGTLVTVSS", "VL": "not shown"}}, "key": {"[1]": {"biological_target": "SARS-CoV S 2P prefusion-stabilized ectodomain trimer (SARS-CoV, Urbani (AAP13441, named for …, UniProt P59594, stabilised))", "test": "SPR"}, "[2]": {"biological_target": "MERS-CoV S 2P prefusion-stabilized ectodomain trimer (MERS-CoV, strain of ectodomain not …, stabilised)", "test": "SPR"}}, "data": [{"binder": "B1", "values": [{"measurement": "Kd", "setting": "[1]", "value": 7, "unit": "nM"}, {"measurement": "Kd", "setting": "[2]", "value": 12, "unit": "nM"}]}]}
